Here are results for five molecules from patent US20040213833A1 (published 2004).

Positions of bridges follow the written chain, without caps; N, C: chain ends. No end group written: not given here.

Holding throughout (assay): cell-based or functional assay
In assay [1] the target is MMP-9 (matrix metalloproteinase-9, gelatinase), purified enzyme (UniProt P14780 107-707, limits assumed).
The target in assay [2] is T1, MMP-2 (matrix metalloproteinase-2, gelatinase), purified enzyme (UniProt P08253 110-660, limits assumed).
T1 sequence (looked up): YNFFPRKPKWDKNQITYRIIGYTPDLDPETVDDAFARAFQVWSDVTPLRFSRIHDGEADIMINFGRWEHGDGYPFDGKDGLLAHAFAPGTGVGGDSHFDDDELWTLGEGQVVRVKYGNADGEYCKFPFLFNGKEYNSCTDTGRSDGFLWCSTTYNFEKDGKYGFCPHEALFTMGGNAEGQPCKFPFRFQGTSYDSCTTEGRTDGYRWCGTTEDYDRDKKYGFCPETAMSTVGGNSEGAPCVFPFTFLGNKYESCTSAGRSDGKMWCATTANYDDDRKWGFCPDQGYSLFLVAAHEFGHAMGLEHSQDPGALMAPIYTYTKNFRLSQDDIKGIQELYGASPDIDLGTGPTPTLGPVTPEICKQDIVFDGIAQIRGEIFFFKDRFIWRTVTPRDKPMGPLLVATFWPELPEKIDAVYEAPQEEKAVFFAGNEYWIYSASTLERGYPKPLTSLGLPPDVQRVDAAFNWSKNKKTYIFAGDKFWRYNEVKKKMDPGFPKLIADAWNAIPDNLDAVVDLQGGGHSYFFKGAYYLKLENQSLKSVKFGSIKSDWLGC

The target in assay [3] is cell surface-bound gelatinases (of HT1080 cells).

Chain of MMP-9 (matrix metalloproteinase-9, gelatinase), purified enzyme (P14780 107-707 limits assumed): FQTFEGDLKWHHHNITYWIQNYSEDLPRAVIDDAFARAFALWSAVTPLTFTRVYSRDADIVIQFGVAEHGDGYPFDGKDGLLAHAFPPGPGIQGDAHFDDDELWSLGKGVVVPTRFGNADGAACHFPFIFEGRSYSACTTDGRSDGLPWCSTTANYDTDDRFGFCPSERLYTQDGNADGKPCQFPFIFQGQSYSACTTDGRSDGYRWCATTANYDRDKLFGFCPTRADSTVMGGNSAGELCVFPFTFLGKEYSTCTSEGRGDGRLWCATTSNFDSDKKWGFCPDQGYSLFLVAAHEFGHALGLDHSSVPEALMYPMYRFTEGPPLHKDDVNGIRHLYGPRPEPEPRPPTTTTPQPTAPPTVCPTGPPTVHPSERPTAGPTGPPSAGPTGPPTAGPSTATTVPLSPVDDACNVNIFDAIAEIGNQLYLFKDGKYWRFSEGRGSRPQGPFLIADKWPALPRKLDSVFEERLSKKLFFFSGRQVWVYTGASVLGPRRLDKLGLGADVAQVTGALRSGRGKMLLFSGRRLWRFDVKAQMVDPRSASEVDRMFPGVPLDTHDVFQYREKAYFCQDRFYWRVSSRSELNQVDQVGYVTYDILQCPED

Take CTTHWGFTLC (disulfide 1-10) [CTT peptide CTTHWGFTLC (cyclic, free in solution)]: the “IC50 of inhibition of MMP-9 activity, gelatinase assay with fluorogenic peptide substrate” value in assay [1] stood at 8 µM. Moreover, the “inhibition of MMP-2 activity, casein zymography (area digested), peptide at 85 uM” value (from here on “inhibition of MMP-2 activity”) in assay [2] is approximately 70 % inhibition.

In the case of CLPGHWGFPSC (disulfide 1-11) [CLP peptide CLPGHWGFPSC], the “inhibition of MMP-2 activity” value in assay [2] amounted to 50 % inhibition.

Consider CTTHWGFTLC (disulfide 1-10; also: adsorbed non-covalently to POPC/POPE liposomes) [CTT peptide CTTHWGFTLC bound to POPC/POPE (80/20 mol/mol) liposomes], for which the “IC50 of inhibition of MMP-9 activity, gelatinase assay with fluorogenic peptide substrate” value in assay [1] worked out at 8 µM.

Molecule CTTHWGFTLC (disulfide 1-10; also: adsorbed non-covalently to POPC/POPE liposomes) [CTT peptide … bound to POPC/POPE (80/20 mol/mol) liposomes] came in with a transfer of rhodamine B liposomes with CTT into HT1080 cells after preincubation with TIMP-2 (10 µg/ml) in assay [3] of 50 % inhibition.

In the case of STTHWGFTLC [STT peptide … (linear analog of CTT)], the “inhibition of MMP-2 activity” value in assay [2] was approximately 30 % inhibition.
